The source of these data is article PMC4792234, “Modulation of MICAL Monooxygenase Activity by its Calponin Homology Domain: Structural and Mechanistic Insights” (Scientific Reports, 2016).

Data set [1] addresses T1, MICALMO-CH (mMICAL-1 residues 2-615) (Mus musculus, UniProt Q8VDP3, Q78K).
T1 construct: gene Mical1; MO plus CH domains, residues 2-615, Q78K to remove a protease site; extra Gly from vector; N-terminal His-tag removed with TEV; E. coli BL21, codon-optimised
T1 sequence (Q8VDP3 2-615 Q78K): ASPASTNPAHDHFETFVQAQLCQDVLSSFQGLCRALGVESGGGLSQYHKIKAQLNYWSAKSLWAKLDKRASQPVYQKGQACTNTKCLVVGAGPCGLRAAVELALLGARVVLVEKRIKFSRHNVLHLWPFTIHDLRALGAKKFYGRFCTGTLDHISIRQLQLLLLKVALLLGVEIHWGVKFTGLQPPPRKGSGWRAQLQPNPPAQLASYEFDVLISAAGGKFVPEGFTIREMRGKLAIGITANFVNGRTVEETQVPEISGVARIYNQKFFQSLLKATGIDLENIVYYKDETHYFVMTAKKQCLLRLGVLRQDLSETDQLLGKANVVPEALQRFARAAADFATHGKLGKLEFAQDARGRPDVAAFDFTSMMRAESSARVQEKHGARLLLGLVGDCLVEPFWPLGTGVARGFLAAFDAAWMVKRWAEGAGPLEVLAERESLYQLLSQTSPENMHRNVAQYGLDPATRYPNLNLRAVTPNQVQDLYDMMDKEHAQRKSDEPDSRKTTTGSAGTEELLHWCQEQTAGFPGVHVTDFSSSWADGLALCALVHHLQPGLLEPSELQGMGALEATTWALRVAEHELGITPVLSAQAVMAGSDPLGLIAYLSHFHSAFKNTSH
In words: X-ray crystallography, […] and […] Å. It is filed as binding. Particulars: oxidised FAD in the MO domain; two crystal forms.

Substrate in data set [2]: NC(=O)C1=CN([C@@H]2O[C@H](COP(=O)(O)OP(=O)(O)OC[C@H]3O[C@@H](n4cnc5c(N)ncnc54)[C@H](OP(=O)(O)O)[C@@H]3O)[C@@H](O)[C@H]2O)C=CC1
In words: purified protein. It is filed as biochemical, Mus musculus. Conditions: no F-actin, O2 as acceptor, 5 mM Tris-HCl pH 8.0, 50 mM KCl, 2 mM MgCl2, 0.2 mM CaCl2, 0.5 mM DTT, 1 mM ATP, 600 nM enzyme.

Regarding `Cc1cc2nc3c(=O)[nH]c(=O)nc-3n(C[C@H](O)[C@H](O)[C@H](O)COP(=O)(O)OP(=O)(O)OC[C@H]3O[C@@H](n4cnc5c(N)ncnc54)[C@H](O)[C@@H]3O)c2cc1C` [FAD], the “X-ray crystallography, 2.31 and 2.88 Å” value in data set [1] is “In both crystal forms the FAD cofactor is oxidized and accessible through two openings”.

B1: MICALMO (mouse MICAL-1 MO domain, residues 1-484) (Mus musculus) (protein)
chain: MASPASTNPAHDHFETFVQAQLCQDVLSSFQGLCRALGVESGGGLSQYHKIKAQLNYWSAKSLWAKLDKRASQPVYQQGQACTNTKCLVVGAGPCGLRAAVELALLGARVVLVEKRIKFSRHNVLHLWPFTIHDLRALGAKKFYGRFCTGTLDHISIRQLQLLLLKVALLLGVEIHWGVKFTGLQPPPRKGSGWRAQLQPNPPAQLASYEFDVLISAAGGKFVPEGFTIREMRGKLAIGITANFVNGRTVEETQVPEISGVARIYNQKFFQSLLKATGIDLENIVYYKDETHYFVMTAKKQCLLRLGVLRQDLSETDQLLGKANVVPEALQRFARAAADFATHGKLGKLEFAQDARGRPDVAAFDFTSMMRAESSARVQEKHGARLLLGLVGDCLVEPFWPLGTGVARGFLAAFDAAWMVKRWAEGAGPLEVLAERESLYQLLSQTSPENMHRNVAQYGLDPATRYPNLNLRAVTPNQVQDLYD
notes: isolated N-terminal FAD monooxygenase domain, residues 1-484 of 1048
Consider B1, for which, in data set [2], the Km is 28.8 ± 2.2 µM and the kcat came out at 0.68 ± 0.02 s⁻¹.

B2: MICALMO-CH (mMICAL-1 residues 2-615) (Mus musculus; Q78K) (protein)
chain: ASPASTNPAHDHFETFVQAQLCQDVLSSFQGLCRALGVESGGGLSQYHKIKAQLNYWSAKSLWAKLDKRASQPVYQKGQACTNTKCLVVGAGPCGLRAAVELALLGARVVLVEKRIKFSRHNVLHLWPFTIHDLRALGAKKFYGRFCTGTLDHISIRQLQLLLLKVALLLGVEIHWGVKFTGLQPPPRKGSGWRAQLQPNPPAQLASYEFDVLISAAGGKFVPEGFTIREMRGKLAIGITANFVNGRTVEETQVPEISGVARIYNQKFFQSLLKATGIDLENIVYYKDETHYFVMTAKKQCLLRLGVLRQDLSETDQLLGKANVVPEALQRFARAAADFATHGKLGKLEFAQDARGRPDVAAFDFTSMMRAESSARVQEKHGARLLLGLVGDCLVEPFWPLGTGVARGFLAAFDAAWMVKRWAEGAGPLEVLAERESLYQLLSQTSPENMHRNVAQYGLDPATRYPNLNLRAVTPNQVQDLYDMMDKEHAQRKSDEPDSRKTTTGSAGTEELLHWCQEQTAGFPGVHVTDFSSSWADGLALCALVHHLQPGLLEPSELQGMGALEATTWALRVAEHELGITPVLSAQAVMAGSDPLGLIAYLSHFHSAFKNTSH
notes: MO plus CH domains, residues 2-615, Q78K to remove a protease site; extra Gly from vector; N-terminal His-tag removed with TEV; E. coli BL21, codon-optimised
As to B2, in data set [2], the Km came to 37.7 ± 8.4 µM and the kcat came out at 1.7 ± 0.5 s⁻¹.

As a reminder, the Km is the concentration of substrate that gives half-maximal velocity. The kcat is the number of substrate molecules converted per active site and unit of time at saturation.
